Laboratory results published in US20240034792A1 (HARBOUR BIOMED SHANGHAI, published 2024).
Read-outs that look alike come from different tables or passages of the source.

Assays:
[1] = biological target: T1, Human PD-1 protein with histidine and avi tags (ACRO Biosystems, PD1-H82E4) (human, UniProt Q15116 25-167); test: BLI (Octet Red96e), PD-1 captured on SA sensor, 1:1 local fit
T1 construct: Captured on streptavidin (SA) sensors in the BLI assay; not shown: histidine and avi tags
Description: (§1) Human PD-1 proteins with histidine and avi tags were purchased from the manufacturer ACRO Biosystems (Cat#: PD1-H82E4), and the assay buffer was 1× kinetics buffer (diluted from 10× kinetics buffer (ForteBio, Cat#: 18-1105)) for kinetic assay and dilution of antigens and antibodies. The binding kinetics between the antigen and the antibody was analyzed by the biolayer interferometry (BLI) technique using an Octet molecular interaction analyzer (ForteBio, model: Octet Red96e).
(§2) When the binding kinetics between the antigen and the antibody was determined, the rotation speed of the sensor was set at 1000 rpm/min. The eight SA sensors placed in a column were first equilibrated in an assay buffer for 10 min and then used to capture PD-1 at a capture height of 0.5 nm. Thereafter, the SA sensors were equilibrated in the assay buffer for 100 s, and then were associated with each antibody diluted to a single concentration and with a row of blank buffer wells for 180 s, followed by dissociation for 600 s. A new column of SA sensors were used in each cycle.
(§3) When data analysis was performed using Octet Data Analysis software (Fortebio, version 11.0), the reference signals were subtracted by a single reference mode (reference well), the data were fitted by a “1:1 Local fitting” method, and the kinetic parameters of the binding of the antigen to the antibody were calculated to obtain kon (1/Ms) values, kdis (1/s) values and KD (M) values.

[2] = biological target: T1, Human PD-1 protein with histidine and …; test: BLI; ratio of kdis, apparently PR005090 over the variant
Description: as §1, §2, §3

[3] = biological target: T2, Human PD-1 expressed on CHO-K1 cells (CHO-K1/hPD-1) (human, UniProt Q15116 25-288); test: FACS, CHO-K1/hPD-1 cells
T2 construct: whole, on cells; also called CHO-K1 cells overexpressing human PD-1
T2 sequence (Q15116 25-288): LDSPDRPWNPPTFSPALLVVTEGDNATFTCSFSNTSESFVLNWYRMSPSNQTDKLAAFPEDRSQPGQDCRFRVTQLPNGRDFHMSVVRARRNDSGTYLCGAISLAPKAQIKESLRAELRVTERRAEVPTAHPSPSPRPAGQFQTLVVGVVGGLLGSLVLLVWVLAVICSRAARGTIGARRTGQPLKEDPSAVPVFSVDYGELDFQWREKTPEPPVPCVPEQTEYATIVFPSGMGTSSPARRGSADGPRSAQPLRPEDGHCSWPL
Description: In order to investigate the in vitro binding activity of the PD-1 antigen-binding proteins to human/cynomolgus monkey PD-1, the binding assay at the cellular level was performed using a CHO-K1 cell strain overexpressing human or cynomolgus monkey PD-1 (CHO-K1/hPD-1 or CHO-K1/cyno PD-1, from GenScript). Briefly, the CHO-K1-hPD-1 cells were digested and resuspended in an F-12K complete medium, and the cell density was adjusted to 1×10⁶ cells/mL. The cells were seeded in a 96-well V-bottom plate (Corning, Cat#3894) at 100 μL/well, followed by the addition of the test antigen-binding proteins with concentrations 2-fold of final concentrations obtained by 5-fold gradient dilution were each added at 100 μL/well. The mixtures were well mixed. The maximum final concentration of the antigen-binding proteins was 100 nM or 300 nM. A total of 8-11 concentrations were set. hIgG was used as a control. The cells were incubated at 4° C. for 1 h away from light. Thereafter, the cells in each well were rinsed twice with 100 μL of pre-cooled PBS, and centrifuged at 500 g at 4° C. for 5 min, and then the supernatant was discarded. Then 100 μL of a fluorescent secondary antibody (goat anti-human IgG (H+L) secondary antibody, Alexa Fluor® 488 conjugate, Invitrogen, Cat #A11013, 1:1000) was added to each well. The plate was incubated away from light at 4° C. for 30 min. The cells in each well were rinsed twice with 200 μL of pre-cooled PBS, and centrifuged at 500 g at 4° C. for 5 min, and then the supernatant was discarded. Finally, the cells in each well were resuspended in 200 μL of pre-cooled PBS, and the fluorescence signal values were read using a BD FACS CANTOII.

[4] = biological target: T2, Human PD-1 expressed on CHO-K1 cells …; test: FACS, CHO-K1/hPD-1 cells; remark: listed apart in the source
[5] = biological target: T2, Human PD-1 expressed on CHO-K1 cells …; test: FACS, CHO-K1/hPD-1 cells; remark: listed apart in the source

T1 sequence (Q15116 25-167 limits assumed): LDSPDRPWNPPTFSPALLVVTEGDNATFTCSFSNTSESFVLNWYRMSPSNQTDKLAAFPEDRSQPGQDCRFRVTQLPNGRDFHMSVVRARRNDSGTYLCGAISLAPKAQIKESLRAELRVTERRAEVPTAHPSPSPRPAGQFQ

| Binder | Kd [1] | koff [1] | kon [1] | kdis ratio [2] | EC50 [3] | MFI Maximum [3] | EC50 [4] | Maximum (MFI) [4] | EC50 [5] | Maximum (MFI) [5] |
| --- | --- | --- | --- | --- | --- | --- | --- | --- | --- | --- |
| PR005096 (VHH, Monovalent single-domain (VH) variant of PR002481 with Flag-6His tag) VHH: EVQLVETGGGLIQPGGSLRLSCAASGFNVSSHYMSWVRQAPGKGREWVSIIDGGGSTYYADSVKGRFTISRDNSKNRLYLQMNSLRAEDTAMYYCARATRVPEKGGYNYPFNYWGQGTLVTVSS | 10.4 nM | 0.000599 s⁻¹ | 57900 M⁻¹ s⁻¹ | 1.91 | 27.6 nM | 4320 |  |  |  |  |
| PR005104 (VHH, Monovalent single-domain (VH) variant of PR002481 with Flag-6His tag) VHH: EVQLVETGGGLIQPGGSLRLSCAASGFNVSSHYMSWVRQAPGKGREWVSIIDISGSTYYADSVKGRFTISRDNSKNRLYLQMNSLRAEDTAMYYCARATAVAEKNGYNYPFNYWGQGTLVTVSS | 3.08 nM | 0.000243 s⁻¹ | 79000 M⁻¹ s⁻¹ | 4.7 | 11.8 nM | 7300 |  |  |  |  |
| PR005101 (VHH, Monovalent single-domain (VH) variant of PR002481 with Flag-6His tag) VHH: EVQLVETGGGLIQPGGSLRLSCAASGFNVSSHYMSWVRQAPGKGREWVSIIDKGGGTYYADSVKGRFTISRDNSKNRLYLQMNSLRAEDTAMYYCARATAVAEKNGYNYPFNYWGQGTLVTVSS | 58.8 nM | 0.000173 s⁻¹ | 2940 M⁻¹ s⁻¹ | 6.61 | 22.1 nM | 6900 |  |  |  |  |
| PR005575 (antibody, human IgG1, V domains shown, no light chain; also called anti-PD1 PR002481Com_24 HCAb hIgG1) VH: EVQLVETGGGLIQPGGSLRLSCAASGFNVASHYMSWVRQAPGKGREWVSIIDKAGSGYYADSVKGRFTISRDNSKNRLYLQMNSLRAEDTAMYYCARATEVREKQGYNYPFNYWGQGTLVTVSS | 6.46 nM | 4.28e-05 s⁻¹ | 12900 M⁻¹ s⁻¹ |  |  |  | 3.93 nM | 2.58e+06 |  |  |
| PR005585 (antibody, human IgG1, V domains shown, no light chain; also called anti-PD1 PR002481Com_35 HCAb hIgG1) VH: EVQLVETGGGLIQPGGSLRLSCAASGFTVSSFYMSWVRQAPGKGREWVSIIDKAGSTYYADSVKGRFTISRDNSKNRLYLQMNSLRAEDTAMYYCARATEVREKQGYNYPFNYWGQGTLVTVSS | 3.08 nM | 2.22e-05 s⁻¹ | 13200 M⁻¹ s⁻¹ |  |  |  | 7.83 nM | 3.11e+06 |  |  |
| PR005578 (antibody, human IgG1, V domains shown, no light chain; also called anti-PD1 PR002481Com_27 HCAb hIgG1) VH: EVQLVETGGGLIQPGGSLRLSCAASGFNVASYYMSWVRQAPGKGREWVSIIDKAGSGYYADSVKGRFTISRDNSKNRLYLQMNSLRAEDTAMYYCARATAVREKQGYNYPFNYWGQGTLVTVSS |  |  |  |  |  |  | 4.28 nM | 2.71e+06 |  |  |
| PR005098 (VHH, Monovalent single-domain (VH) variant of PR002481 with Flag-6His tag) VHH: EVQLVETGGGLIQPGGSLRLSCAASGFNVSSHYMSWVRQAPGKGREWVSIIDGGGSTYYADSVKGRFTISRDNSKNRLYLQMNSLRAEDTAMYYCARATQVREKGGYNYPFNYWGQGTLVTVSS | 5.88 nM | 0.000394 s⁻¹ | 67100 M⁻¹ s⁻¹ | 2.9 | 18.4 nM | 5720 |  |  |  |  |
| PR005583 (antibody, human IgG1, V domains shown, no light chain; also called anti-PD1 PR002481Com_29 HCAb hIgG1) VH: EVQLVETGGGLIQPGGSLRLSCAASGFNVASFYMSWVRQAPGKGREWVSIIDKAGSTYYADSVKGRFTISRDNSKNRLYLQMNSLRAEDTAMYYCARATEVREKQGYNYPFNYWGQGTLVTVSS | 1.69 nM | 1.65e-05 s⁻¹ | 8280 M⁻¹ s⁻¹ |  |  |  | 4.79 nM | 2.76e+06 |  |  |
| PR005570 (antibody, human IgG1, V domains shown, no light chain; also called anti-PD1 PR002481R2M1_H3 HCAb hIgG1) VH: EVQLVETGGGLIQPGGSLRLSCAASGFNVSFYYMSWVRQAPGKGREWVSIIDKGGSTYYGDSVKGRFTISRDNSKNRLYLQMNSLRAEDTAMYYCARATEVREKNGYNYPFNYWGQGTLVTVSS |  |  |  |  |  |  |  |  | 6.54 nM | 3.18e+06 |
| PR005577 (antibody, human IgG1, V domains shown, no light chain; also called anti-PD1 PR002481Com_26 HCAb hIgG1) VH: EVQLVETGGGLIQPGGSLRLSCAASGFNVASYYMSWVRQAPGKGREWVSIIDKAGSGYYADSVKGRFTISRDNSKNRLYLQMNSLRAEDTAMYYCARATEVREKQGYNYPFNYWGQGTLVTVSS |  |  |  |  |  |  | 6.5 nM | 2.49e+06 |  |  |
| PR005571 (antibody, human IgG1, V domains shown, no light chain; also called anti-PD1 PR002481Com_31 HCAb hIgG1) VH: EVQLVETGGGLIQPGGSLRLSCAASGFNVSFYYMSWVRQAPGKGREWVSIIDKGGSTYYADSVKGRFTISRDNSKNRLYLQMNSLRAEDTAMYYCARATEVREKQGYNYPFNYWGQGTLVTVSS |  |  |  |  |  |  |  |  | 6.55 nM | 2.95e+06 |

More lines, in order of falling Kd [1], values ahead:

| Kd [1] | koff [1] | kon [1] | kdis ratio [2] | EC50 [3] | MFI Maximum [3] | EC50 [4] | Maximum (MFI) [4] | EC50 [5] | Maximum (MFI) [5] | Binder |
| --- | --- | --- | --- | --- | --- | --- | --- | --- | --- | --- |
| 79.6 nM | 0.000252 s⁻¹ | 3160 M⁻¹ s⁻¹ | 4.54 | 14.5 nM | 6890 |  |  |  |  | PR005103 (VHH, Monovalent single-domain (VH) variant of PR002481 with Flag-6His tag) VHH: EVQLVETGGGLIQPGGSLRLSCAASGFNVSSHYMSWVRQAPGKGREWVSIIDRGGGTYYADSVKGRFTISRDNSKNRLYLQMNSLRAEDTAMYYCARATAVAEKNGYNYPFNYWGQGTLVTVSS |
| 13.9 nM | 0.000784 s⁻¹ | 56600 M⁻¹ s⁻¹ | 1.46 | 17.9 nM | 4080 |  |  |  |  | PR005097 (VHH, Monovalent single-domain (VH) variant of PR002481 with Flag-6His tag) VHH: EVQLVETGGGLIQPGGSLRLSCAASGFNVSSHYMSWVRQAPGKGREWVSIIDGGGSTYYADSVKGRFTISRDNSKNRLYLQMNSLRAEDTAMYYCARATAVREKNGYNYPFNYWGQGTLVTVSS |
| 11.6 nM | 0.000301 s⁻¹ | 26000 M⁻¹ s⁻¹ | 3.8 | 19 nM | 6510 |  |  |  |  | PR005100 (VHH, Monovalent single-domain (VH) variant of PR002481 with Flag-6His tag) VHH: EVQLVETGGGLIQPGGSLRLSCAASGFNVSSHYMSWVRQAPGKGREWVSIIDRGGSKYYADSVKGRFTISRDNSKNRLYLQMNSLRAEDTAMYYCARATAVAEKNGYNYPFNYWGQGTLVTVSS |
| 5.99 nM | 0.000268 s⁻¹ | 44800 M⁻¹ s⁻¹ | 4.25 | 12.2 nM | 6560 |  |  |  |  | PR005102 (VHH, Monovalent single-domain (VH) variant of PR002481 with Flag-6His tag) VHH: EVQLVETGGGLIQPGGSLRLSCAASGFNVSSHYMSWVRQAPGKGREWVSIIDRGGSTYYADSVKGRFTISRDNSKNRLYLQMNSLRAEDTAMYYCARATAVAEKNGYNYPFNYWGQGTLVTVSS |
| 4.32 nM | 0.000455 s⁻¹ | 105000 M⁻¹ s⁻¹ | 2.51 | 15.4 nM | 6350 |  |  |  |  | PR005099 (VHH, Monovalent single-domain (VH) variant of PR002481 with Flag-6His tag) VHH: EVQLVETGGGLIQPGGSLRLSCAASGFNVSSHYMSWVRQAPGKGREWVSIIDSAGSTYYADSVKGRFTISRDNSKNRLYLQMNSLRAEDTAMYYCARATAVAEKNGYNYPFNYWGQGTLVTVSS |
| 3.32 nM | 4.28e-05 s⁻¹ | 12900 M⁻¹ s⁻¹ |  |  |  | 4.68 nM | 3.04e+06 |  |  | PR005572 (antibody, human IgG1, V domains shown, no light chain; also called anti-PD1 PR002481Com_32 HCAb hIgG1) VH: EVQLVETGGGLIQPGGSLRLSCAASGFNVAFYYMSWVRQAPGKGREWVSIIDKGGSTYYADSVKGRFTISRDNSKNRLYLQMNSLRAEDTAMYYCARATEVREKQGYNYPFNYWGQGTLVTVSS |
| 0.482 nM | 5.75e-06 s⁻¹ | 11900 M⁻¹ s⁻¹ |  |  |  | 3.4 nM | 3.14e+06 |  |  | PR005569 (antibody, human IgG1, V domains shown, no light chain; also called anti-PD1 PR002481R2M4_E2 HCAb hIgG1) VH: EVQLVETGGGLIQPGGSLRLSCAASGFNVSFYYMSWVRQAPGKGREWVSIIDKSGSTYYAASVKGRFTISRDNSKNRLYLQMNSLRAEDTAMYYCARATEVREKNGYNYPFNYWGQGTLVTVSS |
